US20240084003A1 (SIMCERE ZAIMING PHARMACEUTICAL, published 2024)
Read-outs that look alike come from different tables or passages of the source.

B1: F1.245.2 (antibody, human IgG1, kappa, V domains shown)
VH: EVQLQQSGAELVKPGASVKLSCTGSGFNIKDYYIHWVKQRTEQGLEWMGRIDPEDGETEYAPKFQDEATITSDTSSNTAYLQLSSLTYEDTAVYYCAREAAGYFYRGSSYGYFDVWGTGTTVTVSS
VL: DFQMTQTTSFLSASLGDRVTISCSASQDISNYLNWYQQKPDGTVKLLIYYTSSLHSGVPSRFSGSGSGTDYSLTISNLEPEDIATYYCQQYSMLPYTFGGGTKLEMER
notes: Human-murine chimeric IgG1, kappa
B2: F1.245.2 (antibody, human IgG1, kappa, V domains shown)
VH: EVQLQQSGAELVKPGASVKLSCTGSGFNIKDYYIHWVKQRTEQGLEWMGRIDPEDGETEYAPKFQDEATITSDTSSNTAYLQLSSLTYEDTAVYYCAREAAGYFYRGSSYGYFDVWGTGTTVTVSS
VL: DFQMTQTTSFLSASLGDRVTISCSASQDISNYLNWYQQKPDGTVKLLIYYTSSLHSGVPSRFSGSGSGTDYSLTISNLEPEDIATYYCQQYSMLPYTFGGGTKLEMER
notes: human-murine chimeric IgG1 kappa
B3: F1.60.9 (antibody, human IgG1, kappa, V domains shown)
VH: QVQLKESGPGLVAPSQSLSITCTVSGLSLNNYGVSWVRQPPGKGLEWLGVIWGDGSTNYHSALISRLSISKDNSKSQVFLKLNSLHTDDTATYYCAINWGDYWGQGTTLIVSS
VL: DIKMTQSPSSMNASLGERVTITCKASQDINSYLSWFQQKPGKSPKILIYRANRLIDGVPSRFSGSGSGQDYSLTISSLEYEDMGIYYCLQYGVFPLTFGAGTKLELKR
notes: as for B2
B4: F1.257.3 (antibody, human IgG1, kappa, V domains shown)
VH: QVQLQQSGPELARPGASVKLSCKASGYTFTSYGISWVKQRTGQDLEWIGEIYPKLGTTYYNEKFKDKATLTTDRSSSTAYMALRSLTSEDSAVYFCACPHYYATRGGDYWGQGTTLTVSS
VL: EIVLTQSPATLSVTPGDSVTFSCRASQSISNHLHWYQQKSHESPRLLIRYASQSISGIPSRFSGSGSGTDFTLSLSSVETEDFGVYFCQQSHSWPYTFGGGTKLEIAR
notes: human-murine chimeric IgG1 kappa; VL name legible
B5: F2.70.2 (antibody, human IgG1, lambda, V domains shown)
VH: EVQLVESGGGLVKPGGSLKLSCAASGFTFSDYGMNWFRQAPEKGLEWVAYISRGSHTIYYADTVKGRFTISRDNAKNTLFLQMTSLRSNDTAMYYCVRMAGYYAMDYWGQGTSVTVSS
VL: QLVLTQSSSASFSLGASAKLTCTLSSQHSSYIIEWYQQQPLKPPKYVMELKKDGSHSTGDGIPDRFSGSSSGADRYLSISNIQPEDEAIYICGVGDTIKEQFVYVFGGGTKVTVLG
notes: human-murine chimeric IgG1 lambda
B6: F2.104.10 (antibody, human IgG1, lambda, V domains shown)
VH: EVQLVESGGGFVKPGGSLKLSCAASGFTFSDYGMNWFRQAPEKGLEWVAYISRGSHTIYYADTVKGRFTISRDNAENTLFLQMTSLRSNDTAMYYCVRMAGYYAMDYWGQGTSLTVSS
VL: QLVLTQSSSASFSLGASAKLTCTLSSQHSSYIIEWYQQQPLKPPKYVMEVKKDGSHSTGDGIPDRFSGSSSGADRYLSISNIQSEDEAIYICGVGDTIKEQFVYVFGGGTKVTVLG
notes: as for B5
B7: F2.180.16 (antibody, human IgG1, lambda, V domains shown)
VH: EVKLVESGGGLVLPGGSLKISCAASGFTFSDYYMYWIRQTPDKRLEWVAYISNTGYSTFYPDSVKGRFTVSRDNAKNTLYLQMSRLQSEDTAMYYCARHGILYAMDYWGQGTSVTVSS
VL: QPVLTQSSSASFSLGASAKLTCTLSSQYSTYTIGWYQQQPLKPPKYVMELKHDGSRHTGDGIPDRFSGSSSGADRYLSISNIQPEDEATYICGVGDTIKEQFMYVFGGGTKVTVLG
notes: as for B5
B8: F2.173.9 (antibody, human IgG1, lambda, V domains shown)
VH: EVQLVESGGDLVKPGESLKLSCEASGFTFSNYAMSWVRQTPDRRLEWVATISSIGSFTYYSDSVKGRFTISRDNVKSTLHLQMNNLKSGDTAIYFCARLGVYFDSWGQGTTLTVSS
VL: QLVLTQSSSASFSLGASAKLTCTLSSQHSTYTIEWYQQQPHKPPKFVMEIKKDGSHYTGDGIPDRFSGSSSGADRYLSISNIQPEDETIYICGVSDMIKDQFVYVFGGGTKVTVLG
notes: as for B5
B9: F2.343.16 (antibody, human IgG1, lambda, V domains shown)
VH: QVQLKQSGPGLVQPSQSLSITCTVSGFSLTGYGVQWVRQSPGKGLEWLGVIWGGGGTDYNAAFISRLNIIKDNSKSQVFFKMNSLQADDTAIYYCARYSKYGHFDVWGTGTAVTVSS
VL: QAVVTQESALTTSPGETVTLTCRSSTGAVTTSNYANWVQEKPDHLFTGLIGGTYNRVPGVPARFSGSLIGDKAALTITGAQTEDEAIYFCALWYSNHFWVFGGGTKLTVLG
notes: human-murine chimeric IgG1 lambda; VL name legible
B10: F2.205.9 (antibody, human IgG1, lambda, V domains shown)
VH: QVTLKESGPGILQPSQTLSLTCSFSGFSLSTSGMGVGWIRQPSGKGLEWLAHIWWDDDEYYNPALKSRLTISKDTSKNQVFLKIANVDTADTATYYCARISIPYGYYDWFFDVWGTGTTVTVSA
VL: QAVVTQESALTTSPGETVTLTCRSSTGAVTTRNYANWVQEKPDHLFTGLIGGTNNRAPGVPARFSGSLIGDKAALTITGAQTEDEAIYFCALWYSNHFIFGSGTKVTVLG
notes: as for B9
B11: F2.55.1 (antibody, human IgG1, lambda, V domains shown)
VH: QVTLKESGPGILQPSQTLSLTCSFSGFSLSTFPLGVGWIRQPSGKGLEWLAHVWWNDDDYYNPALKSRLTISKDTSNTRVFLSVASVDTAETATYYCARLNWDRWYFDVWGTGTTVTVSS
VL: QLVLTQSSSASFSLGASAKLTCTLSSQHSAYTVEWYQQQPLKPPKYVMELKKDGSHSTGDGIPDRFSGSSSGADRYLSISNIQPEDEAIYICGVGDTVKEQFVFGGGTKVTVLG
notes: as for B9
B12: F2.151.13 (antibody, human IgG1, lambda, V domains shown)
VH: QVHLQQPGTELMKPGASVKLSCKATGYTFRDYWLEWVKQRPGHGLEWIGEILPGSGNAYYNEKFKGKATFTADTSSNTAYMQLSSLTTEDSAIYYCARVYSNWYFDAWGKGTTVTVSS
VL: QAVVTQESALTTSPGETVTLTCRSSTGAVTTSNYANWVQEKPDHLFTGLIGGTNNQAPGVPARFSGSLIGDKAALTISGAQTEDEAIYFCALWFSNHWVFGGGTKLTVLG
notes: as for B5
B13: HA22-hIgG1 (antibody, V domains shown)
VH: EVQLVESGGGLVKPGGSLKLSCAASGFAFSIYDMSWVRQTPEKCLEWVAYISSGGGTTYYPDTVKGRFTISRDNAKNTLYLQMSSLKSEDTAMYYCARHSGYGTHWGVLFAYWGQGTLVTVSA
VL: DIQMTQTTSSLSASLGDRVTISCRASQDISNYLNWYQQKPDGTVKLLIYYTSILHSGVPSRFSGSGSGTDYSLTISNLEQEDFATYFCQQGNTLPWTFGCGTKLEIKR

Columns and labels:
[1] = target: T1, monkey CD22 (full length, on HEK293T cells) (monkey); assay: FACS, HEK293T-monkey CD22 cells (293T as parent cells)
T1 construct: NCBI XP_014979161.2; also called HEK293T-monkey CD22; HEK293T cells overexpressing monkey CD22
T1 chain: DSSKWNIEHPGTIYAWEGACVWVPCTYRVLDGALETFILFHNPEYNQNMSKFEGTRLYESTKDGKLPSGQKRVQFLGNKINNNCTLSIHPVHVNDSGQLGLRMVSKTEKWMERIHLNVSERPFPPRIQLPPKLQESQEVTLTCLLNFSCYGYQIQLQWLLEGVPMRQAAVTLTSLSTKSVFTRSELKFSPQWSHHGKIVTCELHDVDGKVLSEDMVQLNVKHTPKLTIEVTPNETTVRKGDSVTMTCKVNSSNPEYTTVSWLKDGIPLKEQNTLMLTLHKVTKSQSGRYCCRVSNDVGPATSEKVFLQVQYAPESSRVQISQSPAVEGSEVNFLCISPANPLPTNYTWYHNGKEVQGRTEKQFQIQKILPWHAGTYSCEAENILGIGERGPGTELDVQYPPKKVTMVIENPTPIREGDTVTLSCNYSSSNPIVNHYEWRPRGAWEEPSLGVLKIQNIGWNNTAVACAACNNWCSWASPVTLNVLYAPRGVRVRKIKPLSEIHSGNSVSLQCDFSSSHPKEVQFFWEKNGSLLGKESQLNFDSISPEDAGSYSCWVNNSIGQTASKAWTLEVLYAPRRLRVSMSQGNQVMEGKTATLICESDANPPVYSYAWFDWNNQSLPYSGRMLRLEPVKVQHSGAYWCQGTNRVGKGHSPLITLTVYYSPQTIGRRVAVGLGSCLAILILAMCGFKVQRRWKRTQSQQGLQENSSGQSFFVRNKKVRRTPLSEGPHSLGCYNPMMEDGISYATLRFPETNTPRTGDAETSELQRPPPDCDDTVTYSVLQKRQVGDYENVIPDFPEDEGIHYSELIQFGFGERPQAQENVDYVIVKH
Source text: (§1) The required cells were scale-up cultured in a T-75 cell culture flask to the logarithmic growth phase. For the adherent cell CHO-K1, the medium was aspirated, the cells were washed 2 times with PBS buffer, and then digested with trypsin. After the digestion was terminated, the cells were washed 2 times with PBS buffer. For suspension cell Raji, the medium supernatant was directly centrifuged and discarded, and the cell pellet was washed 2 times with PBS. After counting the cells in the previous step, the cell pellet was resuspended with [PBS+2% (w/w) BSA] blocking solution to 2×10⁶ cells/ml, and added to a 96-well FACS reaction plate at 50 μl/well, and then the chimeric antibody test sample was added at 50 μl/well, and incubated on ice for 2 hours. The mixture was centrifuged and washed 3 times with PBS buffer, Alexa Flour 488-labeled secondary antibody (purchased from Invitrogen, catalog number: A-11013) was added at 50 μl/well, and incubated on ice for 1 hour. The obtained mixture was centrifuged and washed 5 times with PBS, and FACS (FACS Canto™, purchased from BD Company) was used for detection and result analysis. Data analysis was performed by software (CellQuest) to obtain the mean fluorescence density (MFI)of the cells. And then software (GraphPad Prism8) was used for analysis, data fitting, and EC50 value calculation. […] The same method was used to detect the binding of the chimeric antibodies to endogenous CD22-negative cell MoLT4 cells (purchased from ATCC, CRL-1582) and CHO-K1 cells.
(§2) HEK293T-monkey CD22 cells were subjected to FACS detection and data analysis according to the method in Example 5.2.

[2] = target: T2, monkey CD22 on HEK293T-monkey CD22 cells (monkey); assay: FACS, HEK293T-monkey CD22 cells
T2 construct: full-length entry expressed on stably transfected HEK293T cells
T2 chain: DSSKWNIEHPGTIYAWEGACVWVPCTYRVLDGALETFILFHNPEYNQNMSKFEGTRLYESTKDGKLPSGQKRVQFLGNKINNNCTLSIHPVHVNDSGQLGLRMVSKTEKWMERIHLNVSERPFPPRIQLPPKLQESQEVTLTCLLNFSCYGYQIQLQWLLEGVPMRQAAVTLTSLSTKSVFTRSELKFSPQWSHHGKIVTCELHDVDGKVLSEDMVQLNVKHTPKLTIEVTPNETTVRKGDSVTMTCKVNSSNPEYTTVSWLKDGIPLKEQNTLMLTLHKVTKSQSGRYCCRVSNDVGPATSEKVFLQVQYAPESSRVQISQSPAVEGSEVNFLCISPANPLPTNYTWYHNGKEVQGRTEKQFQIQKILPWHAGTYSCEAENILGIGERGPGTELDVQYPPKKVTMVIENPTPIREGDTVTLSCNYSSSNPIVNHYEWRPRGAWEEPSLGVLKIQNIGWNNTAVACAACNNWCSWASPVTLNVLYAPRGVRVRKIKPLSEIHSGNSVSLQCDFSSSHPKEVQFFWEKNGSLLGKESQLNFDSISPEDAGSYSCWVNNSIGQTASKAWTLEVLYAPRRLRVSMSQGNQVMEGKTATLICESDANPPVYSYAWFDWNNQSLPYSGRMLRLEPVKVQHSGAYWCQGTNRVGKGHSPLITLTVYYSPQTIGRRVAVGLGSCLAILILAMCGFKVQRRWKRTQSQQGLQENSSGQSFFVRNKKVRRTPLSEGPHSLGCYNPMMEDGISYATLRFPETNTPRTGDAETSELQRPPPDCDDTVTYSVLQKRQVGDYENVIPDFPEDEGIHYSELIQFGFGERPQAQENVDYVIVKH
Procedure: as §1, with “For” for “The required cells were scale-up cultured in a T-75 cell culture flask to the logarithmic growth phase. For the adherent cell CHO-K1, the medium was aspirated, the cells were washed 2 times with PBS buffer, and then digested with trypsin. After the digestion was terminated, the cells were washed 2 times with PBS buffer. For”
as §2

[3] = target: T2, monkey CD22 on HEK293T-monkey CD22 cells; assay: FACS, HEK293T-monkey CD22 cells, EC50 column
Procedure: as §1, with “For” for “The required cells were scale-up cultured in a T-75 cell culture flask to the logarithmic growth phase. For the adherent cell CHO-K1, the medium was aspirated, the cells were washed 2 times with PBS buffer, and then digested with trypsin. After the digestion was terminated, the cells were washed 2 times with PBS buffer. For”
as §2

[4] = target: T2, monkey CD22 on HEK293T-monkey CD22 cells; assay: FACS, HEK293T-monkey CD22 cells
Procedure: as §1, with “For” for “The required cells were scale-up cultured in a T-75 cell culture flask to the logarithmic growth phase. For the adherent cell CHO-K1, the medium was aspirated, the cells were washed 2 times with PBS buffer, and then digested with trypsin. After the digestion was terminated, the cells were washed 2 times with PBS buffer. For”
as §2

Binder | Maximum mean fluorescence intensity [2] [MFI] | binding result [3] | Maximum mean fluorescence intensity [4] [MFI] | EC50 [4] [nM] | other results
B1 |  |  |  |  | binding result [1]: no binding (tested: 10 nM)
B2 | 124 | no binding |  |  | 
B3 | 531 | no binding |  |  | 
B4 | 147 | no binding |  |  | 
B5 |  | no binding | 409 |  | 
B6 |  | no binding | 251 |  | 
B7 |  | no binding | 69 |  | 
B8 |  |  | 22700 | 2.1 | 
B9 |  | no binding | 83 |  | 
B10 |  |  | 25400 | 0.4 | 
B11 |  |  | 5760 | 34.7 | 
B12 |  |  | 30500 | 1.26 | 
B13 | 17100 |  | 31200 | 1.59 | EC50 [2]: 0.91 nM
